± gives the uncertainty stated by the source.
Experiment: self-splicing fitness, log relative to wild type (ln ratio); higher = more splicing; Tetrahymena group I intron in knt gene, E. coli kanamycin selection, DiMSum; sequences stand for … in CUCUCU…GGAGGGAAAAGUUAUCAGGCAUGCACCUGGUAGCUAGUCUUUAAACCAAUAGAUUGCAUCGGUUUAAAAGGCAAGACCGUCAAAUUGCGGGAAAGGGGUCAACAGCCGUUCAGUACCAAGUCUCAGGGGAAACUUUGAGAUGGCCUUGCAAAGGGUAUGGUAAUAAGCUGACGGACAUGGUCCUAACCACGCAGCCAAGUCCUAAGUCAACAGAUCUUCUGUUGAUAUGGAUGCAGUUCACAGACUAAAUGUCGGUCGGGGAAGAUGUAUUCUUCUCAUAAGAUAUAGUCGGACCUCUCCUUAAUGGGAGCUAGCGGAUGAAGUGAUGCAACACUGGAGCCGCUGGGAACUAAUUUGUAUGCGAAAGUAUAUUGAUUAGUUUUGGAGUACUCGUGGUCG
Method in brief: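 The eight P1ex-region nucleotides of an intron in the knt kanamycin-resistance gene on pET-22b(+) were all randomised and the library put into E. coli BL21(DE3). Six replicate transformations were grown overnight at 37°C or 30°C on LB agar with or without 25 μg/mL kanamycin, together with 100 μg/mL carbenicillin, 50 μM IPTG and 0.2% rhamnose. Colonies were pooled and amplicon-sequenced on an Illumina HiSeq 2500. Fitness from DiMSum is the error-weighted combination of wild-type-normalised replicate fold changes, kanamycin over none.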

Row | Sequence | self-splicing fitness (ln) (30 °C) | self-splicing fitness (ln) (37 °C)
1 | GGGCAGCAAUAUUACGGGGC | -0.887 ± 0.22 | -1.9 ± 0.42
2 | GGGCAGCAAUAUUACGGGUA | – | -2.55 ± 0.35
3 | GGGCAGCAAUAUUACGUAAA | -0.819 ± 0.09 | -0.375 ± 0.11
4 | GGGCAGCAAUAUUACGUAGA | -1.53 ± 0.063 | -0.244 ± 0.083
5 | GGGCAGCAAUAUUACGUGCC | – | -0.519 ± 0.48
6 | GGGCAGCAAUAUUACGUGUG | -2.34 ± 0.14 | -1.26 ± 0.16
7 | GGGCAGCAAUAUUACGUUGA | -1.3 ± 0.081 | -0.64 ± 0.098
8 | GGGCAGCAAUAUUACGUUUG | -1.17 ± 0.098 | -0.133 ± 0.11
9 | GGGGAGCAAUAUUACGAAAC | -3.15 ± 0.42 | -0.654 ± 0.3
10 | GGGGAGCAAUAUUACGAACU | -2.75 ± 0.31 | -1.76 ± 0.27
11 | GGGGAGCAAUAUUACGAUCG | -1.44 ± 0.2 | -0.888 ± 0.3
12 | GGGGAGCAAUAUUACGAUGA | -2.02 ± 0.3 | -2.57 ± 0.37
13 | GGGGAGCAAUAUUACGAUGG | -2.44 ± 0.45 | -2.67 ± 0.44
14 | GGGGAGCAAUAUUACGCACG | -1.89 ± 0.17 | -1.44 ± 0.24
15 | GGGGAGCAAUAUUACGCCGG | – | -0.928 ± 0.42
16 | GGGGAGCAAUAUUACGCGGU | -1.99 ± 0.27 | –
17 | GGGGAGCAAUAUUACGGACA | – | -1.12 ± 0.2
18 | GGGGAGCAAUAUUACGUAAG | -2.56 ± 0.21 | -1.01 ± 0.24
19 | GGGGAGCAAUAUUACGUAAU | -4.07 ± 0.47 | -0.557 ± 0.19
20 | GGGGAGCAAUAUUACGUAGU | – | -1.53 ± 0.37
21 | GGGGAGCAAUAUUACGUCCU | -3.89 ± 0.4 | –
22 | GGGUAGCAAUAUUACGAAAA | -0.788 ± 0.35 | –
23 | GGGUAGCAAUAUUACGAACC | -2.05 ± 0.39 | –
24 | GGGUAGCAAUAUUACGAACG | -0.91 ± 0.08 | -0.292 ± 0.1
25 | GGGUAGCAAUAUUACGAGCG | -1.3 ± 0.12 | -0.426 ± 0.12
26 | GGGUAGCAAUAUUACGAGGA | -2.14 ± 0.22 | -2.74 ± 0.3

Row | Sequence | self-splicing fitness (ln) (30 °C) | self-splicing fitness (ln) (37 °C)
27 | GGGUAGCAAUAUUACGAUGA | -0.862 ± 0.13 | -0.927 ± 0.14
28 | GGGUAGCAAUAUUACGAUUU | -0.0881 ± 0.1 | -0.476 ± 0.099
29 | GGGUAGCAAUAUUACGCACG | -2.15 ± 0.26 | 0.541 ± 0.23
30 | GGGUAGCAAUAUUACGCAGG | – | -2.34 ± 0.25
31 | GGGUAGCAAUAUUACGCCGG | -4.18 ± 0.39 | -2.03 ± 0.24
32 | GGGUAGCAAUAUUACGCCUA | 0.113 ± 0.12 | -0.00829 ± 0.14
33 | GGGUAGCAAUAUUACGCCUU | -1.56 ± 0.18 | -2.07 ± 0.21
34 | GGGUAGCAAUAUUACGCGCG | -0.435 ± 0.11 | 0.558 ± 0.15
35 | GGGUAGCAAUAUUACGCGUU | -0.304 ± 0.091 | -0.0887 ± 0.12
36 | GGGUAGCAAUAUUACGCUCU | -3.13 ± 0.34 | –
37 | GGGUAGCAAUAUUACGCUUG | -0.33 ± 0.1 | -0.241 ± 0.15
38 | GGGUAGCAAUAUUACGGAAA | -1.82 ± 0.34 | 0.517 ± 0.27
39 | GGGUAGCAAUAUUACGGAGC | -1.42 ± 0.14 | -0.425 ± 0.17
40 | GGGUAGCAAUAUUACGGUUU | -0.176 ± 0.068 | 0.138 ± 0.099
41 | GGGUAGCAAUAUUACGUAUA | -1.41 ± 0.14 | -0.205 ± 0.15
42 | GGGUAGCAAUAUUACGUCAA | -0.501 ± 0.13 | -0.61 ± 0.21
43 | GGGUAGCAAUAUUACGUCUC | -0.431 ± 0.28 | 0.223 ± 0.43
44 | GGGUAGCAAUAUUACGUGAC | -2.07 ± 0.17 | -2.27 ± 0.26
45 | GGGUAGCAAUAUUACGUUGU | -2.46 ± 0.19 | -1.14 ± 0.17
46 | GGGUAGCAAUAUUACGUUUG | -1.9 ± 0.14 | -1.35 ± 0.21
47 | GGUAAGCAAUAUUACGACCG | -1.05 ± 0.16 | 0.0485 ± 0.22
48 | GGUAAGCAAUAUUACGACGU | 0.151 ± 0.1 | 0.677 ± 0.13
49 | GGUAAGCAAUAUUACGACUU | -0.311 ± 0.15 | 0.0617 ± 0.18
50 | GGUAAGCAAUAUUACGAGCC | – | -2.76 ± 0.34
51 | GGUAAGCAAUAUUACGAUCC | – | -1.74 ± 0.42
52 | GGUAAGCAAUAUUACGAUCU | -0.636 ± 0.1 | 1.04 ± 0.13

From the supplement of paper PMC7877785
